Laboratory results published in article PMC6556216.

Target: Maporal virus (MPRLV) Gn/Gc virus-like particles (Maporal virus (MPRLV))
Assay: BLI

For “soluble PCDH1 EC1-EC2 (sEC1–2) (from UniProt Q08174-1 58-284) (domain or fragment)”, the Kd was 7 nM.
